In US20130158238A1 (THERACLONE SCIENCES, published 2013):

B1: 8i10 (antibody, V domains shown)
VH: QVQLQESGPGLVKPSETLSLTCTVSGSSISNYYWSWIRQSPGKGLEWIGFIYYGGNTKYNPSLKSRVTISQDTSKSQVSLTMSSVTAAESAVYFCARASCSGGYCILDYWGQGTLVTVS
VL: DIQMTQSPSSLSASVGDRVTITCRASQNIYKYLNWYQQRPGKAPKGLISAASGLQSGVPSRFSGSGSGTDFTLTITSLQPEDFATYYCQQSYSPPLTFGGGTRVEIK
B2: 23K12 (antibody, V domains shown)
VH: EVQLVESGGGLVQPGGSLRISCAASGFTVSSNYMSWVRQAPGKGLEWVSVIYSGGSTYYADSVKGRFSFSRDNSKNTVFLQMNSLRAEDTAVYYCARCLSRMRGYGLDVWGQGTTVTVS
VL: DIQMTQSPSSLSASVGDRVTITCRTSQSISSYLNWYQQKPGKAPKLLIYAASSLQSGVPSRFSGSGSGTDFTLTISGLQPEDFATYYCQQSYSMPAFGQGTKLEIK

Columns and labels:
Test in all cases: ELISA, peptide 2 µg/mL, mAb 5 µg/mL
NM10 = biological target: NM10
NM11 = biological target: NM11
NM16 = biological target: NM16
NM9 = biological target: NM9

Binder | binding activity (ELISA A450) (NM10) | binding activity (ELISA A450) (NM11) | binding activity (ELISA A450) (NM16) | binding activity (ELISA A450) (NM9)
B1 | 0.1 | 0.13 | 0.29 | 0.12
B2 | 0.24 | 0.3 | 0.62 | 0.3
